{"source": "paper PMC9518701", "about": "“Preclinical characterization of amubarvimab and romlusevimab, a pair of non-competing neutralizing monoclonal antibody cocktail, against SARS-CoV-2” (Frontiers in Immunology, 2022)", "binders": {"B1": {"name": "romlusevimab (BRII-198) (antibody, V domains shown)", "VH": "QVQLVQSGSELKKPGASVKVSCKASGYTFTTYVMNWVRQAPGQGLEWMGWINTNTGNPTYAQGFTGRFVFSLDTSVSTASLQISSLKAEDTAVYYCSSEITTLGGMDVWGQGTTVTVSS", "VL": "SYVLTQPPSVSVAPGKTARITCGGNNIGSKSVHWYQQKPGQAPVLVIYYDSDRPSGIPERFSGSNSGNTATLTISGVEAGDEADYYCQVWDSISDHRVFGGGTKLTVL"}, "B2": {"name": "P2B-1G5 (precursor of romlusevimab) (antibody, V domains shown)", "VH": "B1 VH with S98C", "VL": "B1 VL"}}, "target": "T1, SARS-CoV-2 spike protein receptor binding domain (RBD) (SARS-CoV-2, wild type (Wuhan-Hu-1 …, UniProt P0DTC2))", "T1 construct": "also called SARS-CoV-2 RBD", "assay": "SPR", "conditions": "both partners purified", "note": "Residue numbers refer to the chain shown, from its start. Names and notes keep the numbering of the source.", "data": [{"binder": "B1", "values": [{"measurement": "Kd", "result": 0.56, "unit": "nM"}]}, {"binder": "B2", "values": [{"measurement": "binding result", "result": "binds"}]}]}
